Laboratory results taken from patent publication US20060257407A1 (Janssen / Centocor, published 2006).
Like-named read-outs stand apart in the source and are kept apart here.

How the values were obtained:
[1] = target: recombinant human IL-6 (human) (UniProt P05231); assay: cell-based or functional assay
[2] = target: recombinant human IL-6 (human) (UniProt P05231); assay: KinExA 3000
[3] = target: IL-6/sIL-6R complex (human) (UniProt P08887); assay: ELISA: sIL-6R coated at 10 µg/ml, human IL-6 added at 200 ng/ml, antibody dilutions, detection with HRP-anti-human IgG, OD490
[4] = target: recombinant human IL-6 (human) (UniProt P05231); assay: calculated, KinExA 3000
[5] = target: recombinant human IL-6 (human) (UniProt P05231); assay: KinExA 3000, IgG at 200 pM mixed with 100-200 pM human IL-6, free IgG over time
[6] = target: recombinant human IL-6 (human) (UniProt P05231); assay: KinExA 3000, equilibrium in solution, IgG at 5 pM with serially diluted human IL-6, 20 C
[7] = target: recombinant human IL-6 (human) (UniProt P05231); assay: calculated from KD = koff/kon, KinExA 3000
[8] = target: recombinant human IL-6 (human) (UniProt P05231); assay: ELISA: IgG dilutions captured on goat anti-human kappa, biotinylated IL-6 at 200 ng/ml, NeutrAvidin-alkaline phosphatase, O.D. 560 after 15 min
[9] = target: recombinant human IL-6 (human) (UniProt P05231); assay: cell-based or functional assay; remark: listed apart in the source
[10] = target: T1, recombinant human IL-6 (human, UniProt P05231 30-212); assay: calculated, KinExA 3000
T1 construct: Bought from R&D Systems (206-IL-010); Biotinylated or coupled to beads in some assays; also called hIL-6; rhIL-6
Experimental: (§1) The KinExA 3000 instrument, manufactured by Sapidyne, was used to measure binding kinetics. Briefly, human IL-6 was covalently coupled to alzactone beads and the binding of free IgG to the beads was detected on the instrument. […] For example, the chimeric anti-IL-6 antibody was used at a constant concentration of 5 pM and individual tubes were incubated with 0-200 pM of IL-6. Incubations for the other IgGs were set in a similar manner. After the incubation, free IgG in each equilibrated sample was determined on the KinExA 3000 instrument according to the manufacturer's instructions. KD values were determined by the KinExA 3000 software using the KinExA 3000 instrument, as described in more detail below.
(§2) To measure kₒₙ, individual IgGs at 200 pM were mixed with 100-200 pM of human IL-6 and the unbound IgG was detected by binding to human IL-6 covalently coupled to alzactone beads on the KinExA 3000 instrument. A series of measurements were taken over time. The resulting data was used to calculate the kₒₙ with the KinExA 3000 software. koff was calculated by using the formula KD=koff/kₒₙ.

[11] = target: T1, recombinant human IL-6; assay: KinExA 3000, IgG at 200 pM mixed with 100-200 pM human IL-6, free IgG over time
Experimental: as §2

[12] = target: T1, recombinant human IL-6; assay: KinExA 3000, equilibrium in solution, IgG at 1 pM with serially diluted human IL-6, 20 C
Experimental: as §1

[13] = target: T1, recombinant human IL-6; assay: KinExA 3000
Experimental: as §1, §2

[14] = target: T1, recombinant human IL-6; assay: calculated from KD = koff/kon, KinExA 3000
Experimental: as §1, §2

[15] = target: T2, IL-6/sIL-6R complex (human, UniProt P08887 20-358, limits assumed); assay: EIA: sIL-6R coated, 200 ng/ml human IL-6, antibody dilutions from 10 ug/ml, anti-human IgG-HRP
T2 construct: Formed on the plate: sIL-6R coated at 10 ug/ml, then human IL-6 added at 200 ng/ml; also called sIL-6/sIL-6R complex; IL-6/IL-6R complex
Experimental: Costar EIA plates (Corning/Costar, Acton, Mass.) (Catalog # 9018) were coated with sIL-6R (10 μg/ml in PBS, 100 μl/well) overnight at 4° C. The plates were washed with 0.15M saline containing 0.02% (v/v) Tween 20 and wells were blocked with 1% (w/v) BSA in PBS, 200 μl/well for one hour at room temperature. The wells were washed again then in the sequential format incubated with 200 ng/ml human IL-6 (100 μl/well) in PBS for one hour at room temperature. Antibody was added to all wells in 10-fold serial dilutions from a starting concentration of 10 μg/ml in 100 μl/well for one hour at room temperature. After washing, the wells were incubated with goat anti-human IgG (H+L)-HRP-linked, (10 μg/ml in PBS) for 30 minutes at room temperature. The wells were washed and 100 μl/well of citrate-phosphate substrates solution (0.1M Citric Acid and 0.2M Sodium Phosphate, 0.01% H₂O₂ and 1 mg/ml OPD) was added for 15 minutes at room temperature. The reaction was stopped by addition of 25 μl/well of 4N sulfuric acid and the OD₄₉₀ was read via an automated ELISA plate reader (Molecular Devices Spectromax Plus, Sunnyvale, Calif.).
In addition, AME-A9, AME-A16, AME-18a, AME-20b, AME-22a, and AME-23a can detect IL-6 bound to sgp80 (sIL-6R) in a dose dependent manner using EIA. […] However, preincubation of IL-6 and any of these anti hIL-6 monoclonal antibodies precludes the ability of sIL-6R to bind IL-6.

[16] = target: T1, recombinant human IL-6; assay: ELISA: IgG dilutions captured on goat anti-human kappa, biotinylated IL-6 at 200 ng/ml, NeutrAvidin-alkaline phosphatase, O.D. 560 after 15 min
Experimental: The ELISA generally used Costar 3366 microtiter plates coated with a goat anti-human kappa antibody. Dilutions of Fab (or IgG) were incubated in the coated wells for 1 hr at 22° C. The wells were then washed with PBS, 0.1% Tween 20 and biotinylated IL-6 at 200 ng/ml was added for 1 hour. After washing, an alkaline phosphatase conjugate of NeutrAvidin was added and incubated for 1 hour at 22° C. A colorimetric substrate was added after extensive washing and the bound IL-6 was determined. A variation of this ELISA included an extended wash step in a beaker of PBS, 0.01% BSA at 37° C. after the biotinylated IL-6 incubation, e.g., an 18 hour extended wash step.

[17] = target: T1, recombinant human IL-6; assay: cell-based or functional assay
[18] = target: T1, recombinant human IL-6; assay: KinExA 3000, equilibrium in solution, IgG at 0.5 pM with serially diluted human IL-6, 20 C
Experimental: as §1

[19] = target: T1, recombinant human IL-6; assay: cell-based or functional assay; remark: listed apart in the source

Sequence of recombinant human IL-6 (human) (P05231 30-212 limits assumed): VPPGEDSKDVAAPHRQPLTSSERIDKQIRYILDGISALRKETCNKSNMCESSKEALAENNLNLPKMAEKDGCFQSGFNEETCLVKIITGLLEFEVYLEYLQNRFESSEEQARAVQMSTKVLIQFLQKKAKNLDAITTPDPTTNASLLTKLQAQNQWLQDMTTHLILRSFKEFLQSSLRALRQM
T1 sequence (P05231 30-212 limits assumed): as above
T2 sequence (chain, as listed by the source limits assumed, chain 1 of 2): as the sequence (P05231 30-212 limits assumed) above
T2 sequence (P08887 20-358 limits assumed, chain 2 of 2): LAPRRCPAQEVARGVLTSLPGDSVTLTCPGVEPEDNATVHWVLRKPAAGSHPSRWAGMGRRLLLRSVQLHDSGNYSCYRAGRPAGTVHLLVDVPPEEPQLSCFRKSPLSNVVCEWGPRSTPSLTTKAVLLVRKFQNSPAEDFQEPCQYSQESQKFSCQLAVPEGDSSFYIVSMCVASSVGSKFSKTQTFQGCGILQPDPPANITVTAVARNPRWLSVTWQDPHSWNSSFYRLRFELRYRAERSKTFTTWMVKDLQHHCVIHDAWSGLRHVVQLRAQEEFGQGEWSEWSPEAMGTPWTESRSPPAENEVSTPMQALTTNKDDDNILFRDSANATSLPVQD
Sequence of IL-6/sIL-6R complex (human) (chain, as listed by the source limits assumed, chain 1 of 2): as the sequence (P05231 30-212 limits assumed) above
Sequence of IL-6/sIL-6R complex (human) (P08887 20-358 limits assumed, chain 2 of 2): as the sequence (P08887 20-358 limits assumed, chain 2 of 2) above

Improvement Ratio of koff (against chimeric antibody) [10] [fold]	kon [11] [M⁻¹ s⁻¹]	Kd [12] [pM]	Improvement Ratio of KD (as compared to chimeric ab) [13] [fold]	Improvement Ratio of kon (against chimeric antibody) [13] [fold]	koff [14] [s⁻¹]	binding result [15]	EC50 (read off the curve) [16] [µg/mL]	Binder	further results
–	–	–	–	–	–	–	–	chimeric anti-IL-6 antibody CNTO 328 (antibody, INN chains, looked up, V domains shown, biotinylated in competition ELISA) VH: EVQLVESGGKLLKPGGSLKLSCAASGFTFSSFAMSWFRQSPEKRLEWVAEISSGGSYTYYPDTVTGRFTISRDNAKNTLYLEMSSLRSEDTAMYYCARGLWGYYALDYWGQGTSVTVSS VL: QIVLIQSPAIMSASPGEKVTMTCSASSSVSYMYWYQQKPGSSPRLLIYDTSNLASGVPVRFSGSGSGTSYSLTISRMEAEDAATYYCQQWSGYPYTFGGGTKLEIK	EC50, growth of IL-6 dependent 7TD1 cells with 500 pg/ml human IL-6 (ATPlite) [1]: 27 pM; Improvement Ratio of KD (as compared to chimeric ab) [2]: 1 fold; Improvement Ratio of kon (against chimeric antibody) [2]: 1 fold; EC50 (read off the curve) [3]: 0.01 µg/mL; Improvement Ratio of koff (against chimeric antibody) [4]: 1 fold; kon [5]: 4.4e+06 M⁻¹ s⁻¹; Kd [6]: 3 pM; koff [7]: 1.3e-05 s⁻¹; EC50 (read off the curve) [8]: 0.1 µg/mL; EC50, growth of IL-6 dependent 7TD1 cells with 500 pg/ml human IL-6 (ATPlite) [9]: 0.00409 µg/mL
3.5	4.7e+06	0.78	3.8	1	3.7e-06	binds	–	AME-20b (antibody, V domains shown, Tested as IgG; also called 140) VH: EVQLVESGGGLVQPGGSLRLSCAASGFQFSSFAMSWVRQAPGKGLEWVAKISPGGSYTYYSDTVTGRFTISRDNAKNSLYLQMNSLRAEDTAVYYCARQLWGYYALDIWGQGTTVTVSS VL: EIVLTQSPATLSLSPGERATLSCSASISVSYMYWYQQKPGQAPRLLIYDMSNLASGIPARFSGSGSGTDFTLTISSLEPEDFAVYYCMQWSGYPYTFGGGTKVEIK	–
11.8	6e+06	0.18	16.7	1.3	1.1e-06	–	–	AME-22a (antibody, V domains shown, Tested as IgG; also called 150) VH: EVQLVESGGGLVQPGGSLRLSCAASGFQFSPFAMSWVRQAPGKGLEWVAKISPGGSWTYYPDTDTGRFTISRDNAKNSLYLQMNSLRAEDTAVYYCARQLWGYYALDFWGQGTTVTVSS VL: EIVLTQSPATLSLSPGERATLSCSASYSVSYMYWYQQKPGQAPRLLIYDFSNLASGIPARFSGSGSGTDFTLTISSLEPEDFAVYYCMQWSGYPYTFGGGTKVEIK	–
–	–	–	–	–	–	binds	~0.09	AME-A9 (antibody, V domains shown, Human engineered monoclonal antibody, detected with anti-human IgG; also called 104) VH: EVQLVESGGGLVQPGGSLRLSCAASGFTFSSFAMSWVRQAPGKGLEWVAKISSGGSYTYYPDTVTGRFTISRDNAKNSLYLQMNSLRAEDTAVYYCARQLWGYYALDYWGQGTTVTVSS VL: EIVLTQSPATLSLSPGERATLSCSASSSVSYMYWYQQKPGQAPRLLIYDTSNLASGIPARFSGSGSGTDFTLTISSLEPEDFAVYYCSQWSGYPYTFGGGTKVEIK	–
15.7	1e+06	0.83	3.6	0.22	8.3e-07	binds	~0.07	AME-16 (antibody, V domains shown, Tested as IgG; also called AME-A16; 106) VH: EVQLVESGGGLVQPGGSLRLSCAASGFTFSSFAMSWVRQAPGKGLEWVAKISPGGSYTYYPDTVTGRFTISRDNAKNSLYLQMNSLRAEDTAVYYCARQLWGYYALDYWGQGTTVTVSS VL: EIVLTQSPATLSLSPGERATLSCSASSSVSYMYWYQQKPGQAPRLLIYDTSNLASGIPARFSGSGSGTDFTLTISSLEPEDFAVYYCSQWSGYPYTFGGGTKVEIK	–
65	5.5e+06	–	81.1	1.2	2e-07	–	–	AME-19a (antibody, V domains shown, Tested as IgG; also called 136; human engineered anti-IL-6 (clone AME-19a) antibody) VH: EVQLVESGGGLVQPGGSLRLSCAASGFTFSPFAMSWVRQAPGKGLEWVAKISPGGSWTYYSDTVTGRFTISRDNAKNSLYLQMNSLRAEDTAVYYCARQLWGYYALDIWGQGTTVTVSS VL: EIVLTQSPATLSLSPGERATLSCSASISVSYMYWYQQKPGQAPRLLIYDMSNLASGIPARFSGSGSGTDFTLTISSLEPEDFAVYYCMQWSGYPYTFGGGTKVEIK	EC50, growth of IL-6 dependent 7TD1 cells with 500 pg/ml human IL-6 (ATPlite) [17]: 0.00041 µg/mL; Kd [18]: 0.037 pM; EC50, growth of IL-6 dependent 7TD1 cells with 500 pg/ml human IL-6 (ATPlite) [19]: 2.7 pM; improvement of EC50 against CNTO328, 7TD1 cell assay [19]: 10 fold
295	7.4e+06	0.006	500	1.6	4.4e-08	binds	–	AME-23a (antibody, V domains shown, Tested as IgG; also called 143) VH: EVQLVESGGGLVQPGGSLRLSCAASGFQFSSFAMSWVRQAPGKGLEWVAKISPGGSYTYYSDTVTGRFTISRDNAKNSLYLQMNSLRAEDTAVYYCARQLWGYYALDFWGQGTTVTVSS VL: EIVLTQSPATLSLSPGERATLSCSASYSVSYMYWYQQKPGQAPRLLIYDMSNLASGIPARFSGSGSGTDFTLTISSLEPEDFAVYYCMQWSGYPYTFGGGTKVEIK	–
5.4	2e+07	–	25	4.4	2.4e-06	binds	~0.09	AME-18a (antibody, V domains shown, Tested as IgG; also called 130) VH: EVQLVESGGGLVQPGGSLRLSCAASGFQFSPFAMSWVRQAPGKGLEWVAKISPGGSWTYYSDTVTGRFTISRDNAKNSLYLQMNSLRAEDTAVYYCARQLWGYYALDIWGQGTTVTVSS VL: EIVLTQSPATLSLSPGERATLSCSASSSVSYMYWYQQKPGQAPRLLIYDFSNLASGIPARFSGSGSGTDFTLTISSLEPEDFAVYYCMQWSGYPYTFGGGTKVEIK	Kd [18]: 0.12 pM
